Assay results taken from patent publication US20230041268A1.

Target: CMV pp65 peptide on HLA-A*02:01 (human)
Experiment: CD137 up-regulation; peptide titration on the HLA-A02:01 positive B cell line; full-length, on cells
Conditions: chains Valpha:Vbeta

B1: TCR6-2 (CMV A2/pp65 495-503-specific) (protein)
chain 1: GQQLNQSPQSMFIQEGEDVSMNCTSSSIFNTWLWYKQDPGEGPVLLIALYKAGELTSNGRLTAQFGITRKDSFLNISASIPSDVGIYFCAGPMKTSYDKVIFGPGTSLSVIP
chain 2: DAGVIQSPRHEVTEMGQEVTLRCKPISGHDYLFWYRQTMMRGLELLIYFNNNVPIDDSGMPEDRFSAKMPNASFSTLKIQPSEPRDSAVYFCASSSANYGYTFGSGTRLTVV
Work on B1 yielded an EC50 of peptide of 10 nM.
